Experimental data as given in patent US20200347384.

Key:
[1] = target: T1, HIV-1 reverse transcriptase (HIV RT) (Human immunodeficiency virus) (UniProt P03366+P03366); assay: MST; conditions: TNA at all positions; triplicate
[2] = target: T1, HIV-1 reverse transcriptase (HIV RT) (Human immunodeficiency virus); assay: EMSA; conditions: TNA at all positions; ~500 pM after 1 h 37 C with snake venom phosphodiesterase (p160)

AATAGTAAATTGATTTAAAAATTTCATAAATGCTACATAA [HIV-RT 3.17]
Kd [1]: 0.38 nM
Kd [2]: 0.196 nM
